Experimental findings from article PMC4610412 (2016) are described below.

One assay deals with T1, cis-locked inhibitor (also: cis-locked alkene isostere, place not given here).
T1 chain: FF[pS]PR
In words: NMR titration.

For another assay, the target named is T2, trans-locked inhibitor (also: trans-locked alkene isostere, place not given here).
T2 chain: FF[pS]PR
The experiment in a line: NMR titration.

A further assay has as its target T3, pCdc25C (Homo sapiens).
T3 chain: EQPL[pT]PVTDL
In words: ITC. In general terms: In ITC the heat of successive injections is recorded.

Where no end group is shown, it is not given here. [ ]: non-standard residue; d: D form. pT = C[C@@H](OP(=O)(O)O)[C@H](N)C(=O)O; pS = N[C@@H](COP(=O)(O)O)C(=O)O

B1: Pin1 PPIase domain (isolated) PPIase (protein)
chain: PARVRCSHLLVKHSQSRRPSSWRQEKITRTKEEALELINGYIQKIKSGEEDFESLASQFSDCSSAKARGDLGAFSRGQMQKPFEDASFALRTGEMSGPVFTDSGIHIILRTE
On to B1, for which the Kd (commonly the concentration at which binding is half-saturated) was 7 µM with cis-locked inhibitor, 66 µM in the assay with trans-locked inhibitor and more than 1000 µM in the assay with pCdc25C.
